From the supplement of paper PMC7877785
± gives the uncertainty stated by the source.

Test: self-splicing fitness, log relative to wild type (ln ratio); higher = more splicing; Tetrahymena group I intron in knt gene, E. coli kanamycin selection, DiMSum; sequences stand for … in CUCUCU…GGAGGGAAAAGUUAUCAGGCAUGCACCUGGUAGCUAGUCUUUAAACCAAUAGAUUGCAUCGGUUUAAAAGGCAAGACCGUCAAAUUGCGGGAAAGGGGUCAACAGCCGUUCAGUACCAAGUCUCAGGGGAAACUUUGAGAUGGCCUUGCAAAGGGUAUGGUAAUAAGCUGACGGACAUGGUCCUAACCACGCAGCCAAGUCCUAAGUCAACAGAUCUUCUGUUGAUAUGGAUGCAGUUCACAGACUAAAUGUCGGUCGGGGAAGAUGUAUUCUUCUCAUAAGAUAUAGUCGGACCUCUCCUUAAUGGGAGCUAGCGGAUGAAGUGAUGCAACACUGGAGCCGCUGGGAACUAAUUUGUAUGCGAAAGUAUAUUGAUUAGUUUUGGAGUACUCGUGGUCG
In short: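 Six replicate transformations of E. coli BL21(DE3) with a pET-22b(+) library were grown overnight at 37°C or 30°C. The library randomised all eight P1ex-region intron nucleotides, the intron lying in the knt kanamycin-resistance gene, and plates were LB agar with or without 25 μg/mL kanamycin plus 100 μg/mL carbenicillin, 50 μM IPTG and 0.2% rhamnose. Pooled colonies were amplicon-sequenced on an Illumina HiSeq 2500, and fitness is the DiMSum error-weighted combination of wild-type-normalised replicate fold changes, kanamycin versus none.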

Sequence | self-splicing fitness (ln) (30 °C) | self-splicing fitness (ln) (37 °C)
CCGAAGCAAUAUUACGGAAG | -3.86 ± 0.24 | -1.31 ± 0.15
CCGAAGCAAUAUUACGGGAG | -2.67 ± 0.18 | -2.46 ± 0.23
CCGAAGCAAUAUUACGGGCA |  | -2.82 ± 0.25
CCGAAGCAAUAUUACGGGUU | -4.22 ± 0.21 | -2.64 ± 0.16
CCGAAGCAAUAUUACGUACG | -1.37 ± 0.13 | -0.92 ± 0.13
CCGAAGCAAUAUUACGUAGA | -3.45 ± 0.17 | -1.06 ± 0.17
CCGAAGCAAUAUUACGUCAA | -3.82 ± 0.38 | -2.35 ± 0.33
CCGAAGCAAUAUUACGUCUG | -0.669 ± 0.06 | -0.285 ± 0.068
CCGAAGCAAUAUUACGUGAU | -3.4 ± 0.13 | -2.84 ± 0.19
CCGAAGCAAUAUUACGUGGG | -3.82 ± 0.14 | -2.39 ± 0.14
CCGAAGCAAUAUUACGUUUA | -3.96 ± 0.26 | -2.95 ± 0.19
CCGAAGCAAUAUUACGUUUG | -4.44 ± 0.22 | -0.979 ± 0.1
CCGCAGCAAUAUUACGAAGC | -3.14 ± 0.22 | -3.36 ± 0.25
CCGCAGCAAUAUUACGAUAG | -0.786 ± 0.052 | 0.602 ± 0.07
CCGCAGCAAUAUUACGCCCC | -3.29 ± 0.36 | -1.4 ± 0.45
CCGCAGCAAUAUUACGCCUC | -2.79 ± 0.12 | -2.04 ± 0.14
CCGCAGCAAUAUUACGCGCU | -3.09 ± 0.21 | -2.01 ± 0.23
CCGCAGCAAUAUUACGCUAC | -4.14 ± 0.28 | -2.37 ± 0.23
CCGCAGCAAUAUUACGCUUG | -3 ± 0.12 | -2.84 ± 0.16
CCGCAGCAAUAUUACGGACA | -4.06 ± 0.46 | -2.57 ± 0.17
CCGCAGCAAUAUUACGGAGG | -3.01 ± 0.16 | -1.81 ± 0.18
CCGCAGCAAUAUUACGGGUU | -3.79 ± 0.11 | -2.74 ± 0.11
CCGCAGCAAUAUUACGGUCC | -3.73 ± 0.23 | -1.99 ± 0.23
CCGCAGCAAUAUUACGGUCU | -4.37 ± 0.2 | -3.65 ± 0.23
CCGCAGCAAUAUUACGUGGA | -3.51 ± 0.23 | -2.43 ± 0.22

Sequence | self-splicing fitness (ln) (30 °C) | self-splicing fitness (ln) (37 °C)
CCGCAGCAAUAUUACGUUCU | -3.87 ± 0.19 | -3.16 ± 0.26
CCGCAGCAAUAUUACGUUGA | -3.59 ± 0.16 | -3.41 ± 0.25
CCGGAGCAAUAUUACGAAGA | -3.63 ± 0.23 | -1.97 ± 0.16
CCGGAGCAAUAUUACGAGGG | -2.13 ± 0.27 | -1.47 ± 0.29
CCGGAGCAAUAUUACGAGUC | -3.15 ± 0.26 | -1.85 ± 0.28
CCGGAGCAAUAUUACGAUGU | -1.72 ± 0.14 | -0.726 ± 0.17
CCGGAGCAAUAUUACGAUUU | -2.51 ± 0.36 | -2.26 ± 0.3
CCGGAGCAAUAUUACGCAUU | -2.9 ± 0.39 | -1.81 ± 0.45
CCGGAGCAAUAUUACGCGCG | -2.44 ± 0.2 | -0.558 ± 0.22
CCGGAGCAAUAUUACGCUAG | -3.07 ± 0.21 | -2.33 ± 0.26
CCGGAGCAAUAUUACGCUAU |  | -2.1 ± 0.2
CCGGAGCAAUAUUACGCUGG | -1.99 ± 0.21 | 
CCGGAGCAAUAUUACGGAGC | -3.73 ± 0.48 | -2.55 ± 0.44
CCGGAGCAAUAUUACGGGCA | -3.1 ± 0.48 | -2.4 ± 0.41
CCGGAGCAAUAUUACGUAAG | -0.00724 ± 0.087 | 0.176 ± 0.13
CCGGAGCAAUAUUACGUACA | -3.36 ± 0.4 | 
CCGGAGCAAUAUUACGUAGC | -2.74 ± 0.31 | -2.04 ± 0.46
CCGGAGCAAUAUUACGUAGG | -3.55 ± 0.26 | -2.66 ± 0.3
CCGGAGCAAUAUUACGUAGU | -4.17 ± 0.25 | -3.22 ± 0.22
CCGGAGCAAUAUUACGUCCG | -3.03 ± 0.37 | 
CCGGAGCAAUAUUACGUCGU | -3.43 ± 0.22 | -1.51 ± 0.18
CCGGAGCAAUAUUACGUGGG | -3.39 ± 0.31 | -2.78 ± 0.38
CCGGAGCAAUAUUACGUGUU | -3.46 ± 0.24 | -2.01 ± 0.19
CCGGAGCAAUAUUACGUUAC | -3.75 ± 0.2 | -1.67 ± 0.2
